T1: Human Nidogen-2 (Homo sapiens, UniProt Q14112)
T1 construct: purchased Novus NBP2-10365
T1 sequence (Q14112 31-1375): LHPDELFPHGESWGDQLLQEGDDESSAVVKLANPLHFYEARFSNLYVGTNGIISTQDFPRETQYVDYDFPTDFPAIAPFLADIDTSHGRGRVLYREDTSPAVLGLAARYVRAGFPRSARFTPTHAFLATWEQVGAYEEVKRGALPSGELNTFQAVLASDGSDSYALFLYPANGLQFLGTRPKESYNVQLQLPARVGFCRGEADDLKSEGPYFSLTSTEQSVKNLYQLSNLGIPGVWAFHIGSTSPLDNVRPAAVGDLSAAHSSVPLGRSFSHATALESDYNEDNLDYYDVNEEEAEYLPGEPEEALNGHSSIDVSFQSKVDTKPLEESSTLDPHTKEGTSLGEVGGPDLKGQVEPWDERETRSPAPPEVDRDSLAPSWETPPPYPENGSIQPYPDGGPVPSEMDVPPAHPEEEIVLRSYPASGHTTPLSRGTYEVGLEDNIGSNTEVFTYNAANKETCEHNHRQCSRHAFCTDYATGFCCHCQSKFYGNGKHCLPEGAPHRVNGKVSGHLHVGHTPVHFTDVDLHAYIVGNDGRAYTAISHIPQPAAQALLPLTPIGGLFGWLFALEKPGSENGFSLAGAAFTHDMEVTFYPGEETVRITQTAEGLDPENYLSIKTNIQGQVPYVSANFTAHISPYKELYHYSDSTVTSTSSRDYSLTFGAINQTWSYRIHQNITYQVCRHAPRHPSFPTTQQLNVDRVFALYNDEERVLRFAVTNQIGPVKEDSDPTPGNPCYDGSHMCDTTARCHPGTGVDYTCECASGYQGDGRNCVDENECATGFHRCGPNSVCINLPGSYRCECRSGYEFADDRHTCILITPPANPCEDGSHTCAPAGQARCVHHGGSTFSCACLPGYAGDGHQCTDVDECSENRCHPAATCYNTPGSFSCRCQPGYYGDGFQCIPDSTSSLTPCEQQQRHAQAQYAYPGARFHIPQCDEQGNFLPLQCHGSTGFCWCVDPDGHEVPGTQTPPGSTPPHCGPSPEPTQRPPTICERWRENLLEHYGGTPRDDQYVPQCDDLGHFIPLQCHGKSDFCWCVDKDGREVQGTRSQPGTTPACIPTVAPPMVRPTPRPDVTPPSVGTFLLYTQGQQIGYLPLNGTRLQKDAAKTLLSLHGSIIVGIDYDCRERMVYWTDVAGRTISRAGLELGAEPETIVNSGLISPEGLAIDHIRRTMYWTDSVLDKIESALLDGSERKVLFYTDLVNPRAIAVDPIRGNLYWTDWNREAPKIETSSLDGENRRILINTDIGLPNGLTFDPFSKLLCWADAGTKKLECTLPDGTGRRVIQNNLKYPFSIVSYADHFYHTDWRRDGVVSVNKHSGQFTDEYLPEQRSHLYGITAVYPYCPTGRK

One experiment deals with T2, Human Myelin Basic Protein (Homo sapiens, UniProt P02686). The experiment can be described thus: phage display, NGS count.
T2 sequence (P02686 135-304 limits assumed): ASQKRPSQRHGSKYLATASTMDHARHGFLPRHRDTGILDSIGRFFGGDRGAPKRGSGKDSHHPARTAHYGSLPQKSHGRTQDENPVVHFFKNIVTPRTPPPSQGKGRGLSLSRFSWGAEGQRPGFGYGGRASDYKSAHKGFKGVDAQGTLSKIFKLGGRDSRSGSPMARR
Conditions: not given
EHGYYKV yielded a Count of 17.
The molecule LPMRILT gave a Count of 16.

In the next experiment the target is Human Nidogen-2 (human) (UniProt Q14112). The experiment can be described thus: phage display R3, NGS count.
Conditions: not given
The molecule KAIHPMRG (peptide) showed a Count of 11.
Same read-out and setting: as for GYWRNAL (peptide), the figure is 11.

A further experiment deals with T2, Human Myelin Basic Protein. The experiment can be described thus: phage display R3, NGS count.
Conditions: not given
Consider EHGYYKV, for which the Count amounted to 16.
The same measure, in the same setting: in the case of LPMRILT it was 16.

Another experiment deals with T1, Human Nidogen-2. The experiment can be described thus: Phage display library screening (Example 1, Power BI analysis), binding to Human Nidogen-2. Particulars: R3 Nidogen-2, NextGen sequencing count of phage sequences distinct for this target. The source says:
Phage display library screens were used to identify peptides that bind to target proteins that are expressed in human nerves and could therefore be useful for systemic in-vivo labeling of nerves during fluorescence assisted surgery. Specifically, m13 phage libraries expressing 7 or 12 random amino acid peptides, or a cyclic peptide CX7C, on the N-terminus of the minor coat protein pIII (New England Biolabs) were processed through multiple rounds of selection for binding to target proteins expressed in peripheral nerve (Table 1).
The library was processed through up to 4 binding and wash cycles. For selection, phage libraries were incubated for up to 24 hours at 4° C. in 96 well plates that had been coated with one of the target proteins. Plates were then washed with PBS and phage were eluted using 0.2M glycine pH 2.0. Phage supernatants where then neutralized with Tris pH 9.0 prior to plating on TG1 bacteria and LB agar plates. Colonies were counted to determine titer followed by DNA preparation of pools of phage and NextGen sequencing. After rounds of selection, phage were pooled and amplified for iterative selection. Phage that were bound at each round were sequenced. NextGen sequencing of pools after 2, 3 and 4 rounds of selection was used to isolate candidate sequences that were analyzed further to identify those that specifically bound each unique target protein.
DNA sequences were trimmed of all vector amino acids and imported as a peptide dataset into Power BI. Power BI was used to identify phage display sequences for specific columns (corresponding to each target protein) in order to identify sequences that were distinct for each protein target. The Power BI code evaluated each individual sequence for each protein target against the sequences present in other protein targets in a test for uniqueness. Using the distinct flag, the Power BI code generated a filtered peptide dataset that excluded any peptide sequence that occur in more than one column which identified a specific protein target. This method therefore identified candidate peptide sequences showing selective binding to an individual target protein. Unique sequences in each column were sorted by individual counts such that the most selected sequences appeared at the top of the column.
For the molecule “ACPENKSKHC (R3 Nidogen-2-binding peptide)”, the Count was determined as 13.
KAIHPMRG (R3 Nidogen-2-binding peptide) registered a Count of 11.
On to GYWRNAL (R3 Nidogen-2-binding peptide), for which the Count came out at 11.
Still for that read-out and setting: as for “ACGEGEADVC (R3 Nidogen-2-binding peptide)”, the figure is 26.
With “ACTVHKWDNC (R3 Nidogen-2-binding peptide)”, the Count is given as 11.
“ACEPRSLANC (R3 Nidogen-2-binding peptide)” showed a Count of 11.
